Experimental data from the RNAGym collection of RNA variant scans (doi:10.1073/pnas.2313332121).
Fewer inactive variants are shown than the library holds.

B1: TPR 5TU (parent)
chain: GGAUCUUCUCGAUCUAACAAAAAAGACAAAUCUGCCACAAAGCUUGAGAGCAUCUUCGGAUGCAGAGGCGGCAGCCUUCGGUGGCGCGAUAGCGCCAACGUUCUCAACUAUGACACGCAAAACGCGUGCUCCGUUGAAUGGAGUUUAUCAUG

Variants of: B1
Test: polymerase ribozyme fitness, log enrichment relative to wild type (log ratio); higher = more active; in vitro selection for triplet polymerase activity
Summary of the method: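 Mutant libraries for each subunit of a heterodimeric triplet polymerase ribozyme were made by PCR and then transcribed. Each library underwent one round of in vitro selection in triplicate: annealing with a biotinylated primer, the partner subunit and triplets, frozen incubation at −7 °C, gel excision of extended constructs, streptavidin-bead capture and RT-PCR. Input and output libraries were Illumina-sequenced, and only genotypes with ≥10 input reads and ≥1 read per output were kept. Fitness is the logarithm, base 2, of genotype enrichment over wild-type enrichment, computed from inverse-variance-weighted replicate averages.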
For GGAUCUUCACGAUCUAACAAAAAAGACAAAUCUGCCACAAAGCUUGAGAGCAUCUUCGGAUGCAGAGGCGGCAGCCUUCGGUGGCGUGAUAGCGCCAACGUUCUCAACUAUGACACGCAAAACGCGUGCUCCGUUGAAUGGAGUUUAUCAUG [U9A C87U], the “polymerase ribozyme fitness (log ratio)” value was -2.96.
With GGAUCUUCACGAUCUAACAAAAAAGAUAAAUCUGCCACAAAGCUUGAGAGCAUCUUCGGAUGCAGAGGCGGUAGCCUUCGGUGGCGCGAUAGCGCCAACGUUCUCAACUAUGACACGCAAAACGCGUGCUCCGUUGAAUGGAGUUUAUCAUG [U9A C27U C72U] the “polymerase ribozyme fitness (log ratio)” value was ≤ -4.2.
With GGAUCUUCACGAUCUAACAAAAAUGACAAAUCUGCCACAAAGCUUGAGAGCAUCAUCGGAUGCAGAGUCGGCAGCCUUCGGCGGCGCGAUAGCACCAACGUUCUCAACUUUGACACGCAAAACGCGUGCUCCGUUAAAUGGAGUUUAUCAUG [U9A A24U U55A G68U U82C G94A A110U G136A] the “polymerase ribozyme fitness (log ratio)” value was ≤ -4.2.
In the case of GGAUCUUCACGAUCUAACAAAAAAGACAAAUCUGUCACAAAGCUUGAGAGCAUCUUCGGAUGCAGAGGCGGCAGCCUUCGGUGGCGCGAUAGCGCCAACGUUCUCAACUAUGACACGCAAUACGCGUGCUCCGUUAAAUGGAGUUUAUCAUG [U9A C35U A121U G136A], the “polymerase ribozyme fitness (log ratio)” value is reported as ≤ -4.2.
In the case of GGAUCUUUUCGAUCUAACAAAAAAGACAAAUCUGCCACAAAGCUUGAGAGCAUCUUCGGAUGUAGAGGCGGCAGCCUUCAGUGCCGCGAUAGCGCUAACGUUCUCAACUAUGACACGCAAAACGCGUGCUCCGUUGAAUGGAGUUUAUCAUG [C8U C63U G80A G84C C96U], the “polymerase ribozyme fitness (log ratio)” value is reported as ≤ -4.2.
For GGAUCUUUUCGAUCUAACAAAAAAGACAAAUCUGCCACAAAGCUUGAGAGCAUCUUCGGAAGCAGAGGCGGCAGCCUUCGGUGGCGCGAUAGCGACAACGUUCUCAACUAUGACACGCAAAACGCGUGCUCCGUUGAAUGGAGUUGAUCAUG [C8U U61A C95A U146G], the “polymerase ribozyme fitness (log ratio)” value was ≤ -4.2.
With GGAUCUUCACGUUCUAACAAAAAAGACAAAUUUGCCUCAAAGCUUGAGAGCAUCUUCGGAUGCAGAGGCGGCAGCCUUCGGUGGCGCGAUACCGCCAACGUUCUCAACUAUGACACGCAAAACGCGUGCUCCGUUGAAUGGAGUUUAUCAUG [U9A A12U C32U A37U G92C] the “polymerase ribozyme fitness (log ratio)” value was ≤ -4.2.
With GGAUCUUUUCGAUCUAACAAAAAAGACAAAUCUGCCACAAAGCUUGAGAGCAUCUUCGGAUGCAGAGGCGGCAGCCUUCGGUGACGCGAUAGCGCCAACGUUCUCAACUAUGACACGCAAAACGCGUGCUCCGUUGAAUGGAGUUUAUCAUG [C8U G84A] the “polymerase ribozyme fitness (log ratio)” value was -2.87.
With GGAUCUUUUCGAUCUAACAAAAAAGACAAAGCUGCCACAGAUCUUGAGAGCCUCUUCGGAUGCAGAGGCGGCAGCCUUGGGUGACGCGAUAGCGCCAACGUUAUCAACUAUGACACGCAAAACGCGUGCUCCAUUGAAUGGAGUUUAGCAUG [C8U U31G A40G G42U A52C C79G G84A C103A G133A U148G] the “polymerase ribozyme fitness (log ratio)” value was ≤ -4.2.
For GGAUCUUUUCGAUCAAACAAAAAAGACAAAUCUGCCACAAUGCUUGAGAGCAUCUUCGGAUGCAGAGGCGGCAGCCUUCGGUGGAGCGAUAGCGCCAACGUUCUCAACUAUGACACGCAAAACGCAUGCUCCGUUGAAUGGAGUUUAUCAUG [C8U U15A A41U C85A G126A], the “polymerase ribozyme fitness (log ratio)” value was -4.06.
For GGAUCUUCACGAUCUAACAAAAAAGACCAAUCUGCCACAAAGCUUGAGAGCAUCUUCGGAUGCCGAGGCGGUAGCCUGCGGUGGCGCGAUAGCGCCAACGUUCUCAACUAUGACACGCAAAACGCGUGCUCCGUUGAAUGGAGUUUAUCAUG [U9A A28C A64C C72U U78G], the “polymerase ribozyme fitness (log ratio)” value was ≤ -4.2.
With GGAUCUUUUCGAUCUAACAAAAAAGACAAAAGUGCCACAAAGCUUGAGAGCAUUUUCGGAUGCAGAGGCGGCAGCCUUCGGUUGCGCGAUAGCGCCAACGUUCACACCUAUGACACGCAAAACGCGUGCUCCGUUGAAUGGAGUUUAUCAUG [C8U U31A C32G C54U G83U U104A A107C] the “polymerase ribozyme fitness (log ratio)” value was ≤ -4.2.
With GGAUCUUCACGAUCUAACAAAAAAGACAAAUCUGCCACAAAGCUUGGGAGCAUCUUCGGAUGCAGAGGAGGCAGCCUUCGGUGGCGCGAUAGCACGAACGCUCUCAACUAUGACACGCAACACGCGUGCUCCGUUGAGUGGAGUUUAUCAUG [U9A A47G C69A G94A C96G U101C A121C A138G] the “polymerase ribozyme fitness (log ratio)” value was ≤ -4.2.
With GGAUCUUCACGAUCUAACAAAAAAGACAACUCUGCCACAGCGCUUGAGAGCAUCUUUGGAUGCAGAGGCGGCAGCCUUCGGUGGCGCGAUAGCGGCAACGUUCUCAACUAUGACACGCAAAACGCGUGCUCCGUUGAAUGGAGUUUAUCAUG [U9A A30C A40G A41C C57U C95G] the “polymerase ribozyme fitness (log ratio)” value was ≤ -4.2.
For GGAUCUUCACGAUCUAACAAAAAAGAAAAAUCUGCCACAUAGCUUGAGAGCAUCUUCGGAUGCAGAGGCGGCAGCCUUCGGUGGCGCGAUAGCGCCAACGUUCUCAACUAUGACACGCAAAACGCGUGCUCCGUUGAAUGGAGUUUAUCAUG [U9A C27A A40U], the “polymerase ribozyme fitness (log ratio)” value was ≤ -4.2.
In the case of GGAUCUUUUCGACAUAACAUAAAAGACAAAUCUGCCACAAAGCUUGAGACCAUCUUCGGAUGAAGAGGCGACAGCCUUGGGUGGCGCGAUAUCGCCAACGUUCUCAACUAUGACACGCCAAACGCGUGCUCCGUUGAAUGAAGUUUAUCAUG [C8U U13C C14A A20U G50C C63A G71A C79G G92U A119C G141A], the “polymerase ribozyme fitness (log ratio)” value is reported as ≤ -4.2.
For GGAUCUUCACGUUCUAACAAAAAAGACAAAUCUGCCACAAAGCUUGAGAGCAUCUUCGGAUGCAGAGGCGGCAGCCUUCGGUGGCGCGAUAGCGCCAACGUUCUCAACUAUGAAACGCAAAACGAGUGCUCCGUUGAAUGGAGUUUAUCAUG [U9A A12U C114A C125A], the “polymerase ribozyme fitness (log ratio)” value was ≤ -4.2.
For GGAUCUUUUCGAUCUAACAAAAAAGACAAAUCUGCCACAAAGCUUGAGAGCAUCUUCGGAUGCAGAGGCGGCAGCCUUCGGUGGUGCGAUAGCGCCAACGUUCUCAACUAUGACACGCAAAACGCGUGCUCCGUUGAAUGGAGUUUAUCAUG [C8U C85U], the “polymerase ribozyme fitness (log ratio)” value was -3.19.
For GGAUCUUUUCGAUCUAACAAAAAAGACAAAUCUGCCACAAAGCUUGAGAGCAUCUUCGGAUGCAGAGGCGGCAGCCUUCGGUGGAGCGAUAGCGCCAACGUUCUCAACUAUGACACGCAAAACGCGUGCUCCGUUGAAUGGAGUUUAUCAUG [C8U C85A], the “polymerase ribozyme fitness (log ratio)” value was -2.75.
